# T1: BCMA on BCMA-positive myeloma cell lines (NCI-H929, ARP-1, U266B1) (Homo sapiens (Human), UniProt Q02223 1-184)
# T1 sequence: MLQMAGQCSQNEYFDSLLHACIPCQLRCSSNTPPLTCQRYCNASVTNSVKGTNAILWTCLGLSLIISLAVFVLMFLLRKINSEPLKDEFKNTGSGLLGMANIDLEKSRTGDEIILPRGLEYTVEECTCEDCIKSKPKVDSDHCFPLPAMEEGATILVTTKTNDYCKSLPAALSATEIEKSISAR
# B1: Antibody 2265-F02 (antibody, V domains shown)
# VH: EVQLVESGGGLVQPGGSLRLSCAASGFNISAPGIHWVRQAPGKGLEWVGFINPAGGYTDYADSVKGRFTISADTSKNTAYLQMNSLRAEDTAVYYCARDYIRQYWTYVLDYWGQGTLVTVSS
# VL: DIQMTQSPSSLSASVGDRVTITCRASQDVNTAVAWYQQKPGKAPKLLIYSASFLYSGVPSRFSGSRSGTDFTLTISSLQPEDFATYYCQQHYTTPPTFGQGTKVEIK
# Target: T1, BCMA on BCMA-positive myeloma cell …
# Experiment: cell-based or functional assay
binder,measurement,value
B1,"ARP-1, Conjugate M 2° antibody cell killing, EC50",1.9 nM
same,"U266B1, Conjugate M 2° antibody cell killing, EC50",0.9 nM

# From US20240299570A1 (CELGENE, published 2024)
